Assay results published in patent publication US20170158742A1.
“And” between values parts separate entries of the source, which are not always exact repeats. Identical values can stand only once.

Experiments:
[1] = molecular target: Eukaryotic translation initiation factor 1 A, X-linked (human) (UniProt P47813)
[2] = molecular target: AF4/FMR2 family, member 4 (human) (UniProt Q9UHB7)
[3] = molecular target: Additional sex combs like 1 (Drosophila) (human) (UniProt Q8IXJ9)
Aurora kinase A (human) = Aurora kinase A (human) (UniProt O14965)
Aurora kinase A (human), sequence (O14965 whole entry): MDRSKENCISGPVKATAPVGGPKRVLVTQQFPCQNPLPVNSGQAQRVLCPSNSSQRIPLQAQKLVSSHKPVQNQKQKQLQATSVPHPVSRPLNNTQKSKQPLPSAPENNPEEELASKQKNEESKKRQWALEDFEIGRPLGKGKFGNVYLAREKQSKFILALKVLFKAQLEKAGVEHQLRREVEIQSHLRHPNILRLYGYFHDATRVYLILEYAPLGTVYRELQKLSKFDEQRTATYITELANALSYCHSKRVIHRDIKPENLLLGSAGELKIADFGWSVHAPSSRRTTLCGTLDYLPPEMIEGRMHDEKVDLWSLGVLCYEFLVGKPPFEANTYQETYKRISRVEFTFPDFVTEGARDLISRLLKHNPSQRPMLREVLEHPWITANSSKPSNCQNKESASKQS

[4] = molecular target: CDKN2A interacting protein (human) (UniProt Q9NXV6)
[5] = molecular target: Calcium channel, voltage-dependent, beta 1 subunit (human) (UniProt Q02641)
[6] = molecular target: Calcium/calmodulin-dependent protein kinase II alpha (human) (UniProt Q9UQM7)
Calcium/calmodulin-dependent protein kinase II alpha (human), sequence (Q9UQM7 whole entry): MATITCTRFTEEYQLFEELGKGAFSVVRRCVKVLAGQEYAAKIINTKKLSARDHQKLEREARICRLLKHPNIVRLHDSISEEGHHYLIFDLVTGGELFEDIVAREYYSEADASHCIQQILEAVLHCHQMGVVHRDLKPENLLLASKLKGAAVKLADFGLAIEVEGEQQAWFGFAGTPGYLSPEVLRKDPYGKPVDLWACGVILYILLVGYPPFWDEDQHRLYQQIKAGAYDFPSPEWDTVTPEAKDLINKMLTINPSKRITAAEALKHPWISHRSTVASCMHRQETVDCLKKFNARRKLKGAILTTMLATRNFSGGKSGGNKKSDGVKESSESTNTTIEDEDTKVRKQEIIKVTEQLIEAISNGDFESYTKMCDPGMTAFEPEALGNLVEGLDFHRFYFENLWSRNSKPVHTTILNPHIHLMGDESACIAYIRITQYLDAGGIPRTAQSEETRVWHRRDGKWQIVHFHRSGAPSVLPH

[7] = molecular target: Checkpoint suppressor 1/Forkhead box N3 (human) (UniProt O00409)
Checkpoint suppressor 1/Forkhead box N3 (human), sequence (O00409 other isoform, or with tags, fused parts or gaps limits assumed): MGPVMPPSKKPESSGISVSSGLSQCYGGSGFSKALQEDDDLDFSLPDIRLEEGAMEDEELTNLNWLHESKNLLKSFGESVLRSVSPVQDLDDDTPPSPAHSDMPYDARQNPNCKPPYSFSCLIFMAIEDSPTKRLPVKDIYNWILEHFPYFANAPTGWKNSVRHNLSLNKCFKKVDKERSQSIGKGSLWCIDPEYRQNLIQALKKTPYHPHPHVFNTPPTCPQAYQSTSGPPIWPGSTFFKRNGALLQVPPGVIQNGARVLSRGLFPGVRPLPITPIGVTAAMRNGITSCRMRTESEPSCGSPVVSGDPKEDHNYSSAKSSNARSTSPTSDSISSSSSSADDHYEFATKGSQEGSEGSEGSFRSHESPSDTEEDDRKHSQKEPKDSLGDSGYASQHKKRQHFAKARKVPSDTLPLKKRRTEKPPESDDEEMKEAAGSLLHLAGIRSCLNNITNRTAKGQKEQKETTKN

[8] = molecular target: Choline kinase alpha (human) (UniProt P35790)
Cortactin (human) = Cortactin (human) (UniProt Q14247)
Cyclin B3 (human) = Cyclin B3 (human) (UniProt Q8WWL7)
[9] = molecular target: DIM1 dimethyladenosine transferase 1 homolog (S. cerevisiae) (human) (UniProt Q9UNQ2)
[10] = molecular target: Elongation factor 1 homolog (ELF1, S. cerevisiae) (human) (UniProt P60002)
[11] = molecular target: Eukaryotic translation initiation factor 1 A, Y-linked (human) (UniProt O14602)
Eukaryotic translation initiation factor 1 A, Y-linked (human), sequence (O14602 whole entry): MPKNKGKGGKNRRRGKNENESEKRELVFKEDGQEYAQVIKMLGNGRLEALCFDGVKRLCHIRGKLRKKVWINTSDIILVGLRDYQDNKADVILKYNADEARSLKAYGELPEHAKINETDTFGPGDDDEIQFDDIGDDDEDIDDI

[12] = molecular target: Immunoglobulin (CD79A) binding protein 1 (human) (UniProt P78318)
Immunoglobulin (CD79A) binding protein 1 (human), sequence (P78318 whole entry): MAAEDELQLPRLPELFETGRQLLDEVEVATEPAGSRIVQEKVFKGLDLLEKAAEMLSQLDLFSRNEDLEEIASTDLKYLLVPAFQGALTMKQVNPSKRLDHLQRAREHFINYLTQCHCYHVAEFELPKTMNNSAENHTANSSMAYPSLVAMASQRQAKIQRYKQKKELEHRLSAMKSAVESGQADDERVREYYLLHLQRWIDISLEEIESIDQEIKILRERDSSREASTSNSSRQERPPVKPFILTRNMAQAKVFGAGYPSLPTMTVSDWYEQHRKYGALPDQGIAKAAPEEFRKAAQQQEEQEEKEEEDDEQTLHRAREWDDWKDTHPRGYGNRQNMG

[13] = molecular target: Microtubule-associated protein 2 (human) (UniProt P11137)
[14] = molecular target: NIMA (never in mitosis gene a)-related kinase 7 (human) (UniProt Q8TDX7)
[15] = molecular target: Nuclear speckle splicing regulatory protein 1 (human) (UniProt Q9H0G5)
Nuclear speckle splicing regulatory protein 1 (human), sequence (Q9H0G5 whole entry): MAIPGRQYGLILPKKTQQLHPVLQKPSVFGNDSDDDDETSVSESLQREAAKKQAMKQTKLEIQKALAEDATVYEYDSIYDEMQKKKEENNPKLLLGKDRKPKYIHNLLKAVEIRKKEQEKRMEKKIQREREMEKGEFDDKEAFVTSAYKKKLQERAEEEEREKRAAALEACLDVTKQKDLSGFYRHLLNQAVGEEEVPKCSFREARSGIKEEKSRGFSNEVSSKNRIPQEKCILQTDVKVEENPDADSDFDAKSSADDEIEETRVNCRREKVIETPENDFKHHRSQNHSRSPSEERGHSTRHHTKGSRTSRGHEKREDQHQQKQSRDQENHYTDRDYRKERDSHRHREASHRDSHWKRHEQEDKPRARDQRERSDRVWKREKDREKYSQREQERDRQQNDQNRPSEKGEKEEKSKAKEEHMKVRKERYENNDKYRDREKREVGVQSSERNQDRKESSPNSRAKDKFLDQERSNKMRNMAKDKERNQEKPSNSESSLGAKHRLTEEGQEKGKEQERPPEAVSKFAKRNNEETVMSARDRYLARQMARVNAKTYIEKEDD

[16] = molecular target: Piccolo (presynaptic cytomatrix protein) (human) (UniProt Q9Y6V0)
[17] = molecular target: Potassium channel tetramerisation domain containing 18 (human) (UniProt Q6PI47)
Potassium channel tetramerisation domain containing 18 (human), sequence (Q6PI47 whole entry, the tested form may be a part): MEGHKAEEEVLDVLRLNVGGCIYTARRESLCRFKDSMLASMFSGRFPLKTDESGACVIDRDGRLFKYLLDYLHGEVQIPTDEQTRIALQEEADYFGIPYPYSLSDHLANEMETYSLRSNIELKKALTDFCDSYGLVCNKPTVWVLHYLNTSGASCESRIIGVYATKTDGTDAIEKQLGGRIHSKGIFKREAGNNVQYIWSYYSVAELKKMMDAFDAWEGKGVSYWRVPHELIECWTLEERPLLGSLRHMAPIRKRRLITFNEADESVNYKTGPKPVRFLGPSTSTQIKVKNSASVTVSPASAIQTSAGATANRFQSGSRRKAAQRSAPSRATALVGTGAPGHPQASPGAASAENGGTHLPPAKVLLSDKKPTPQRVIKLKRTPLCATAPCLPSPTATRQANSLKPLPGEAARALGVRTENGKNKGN

[18] = molecular target: Protein kinase C, iota (human) (UniProt P41743)
Protein kinase C, iota (human), sequence (P41743 10-596 limits assumed): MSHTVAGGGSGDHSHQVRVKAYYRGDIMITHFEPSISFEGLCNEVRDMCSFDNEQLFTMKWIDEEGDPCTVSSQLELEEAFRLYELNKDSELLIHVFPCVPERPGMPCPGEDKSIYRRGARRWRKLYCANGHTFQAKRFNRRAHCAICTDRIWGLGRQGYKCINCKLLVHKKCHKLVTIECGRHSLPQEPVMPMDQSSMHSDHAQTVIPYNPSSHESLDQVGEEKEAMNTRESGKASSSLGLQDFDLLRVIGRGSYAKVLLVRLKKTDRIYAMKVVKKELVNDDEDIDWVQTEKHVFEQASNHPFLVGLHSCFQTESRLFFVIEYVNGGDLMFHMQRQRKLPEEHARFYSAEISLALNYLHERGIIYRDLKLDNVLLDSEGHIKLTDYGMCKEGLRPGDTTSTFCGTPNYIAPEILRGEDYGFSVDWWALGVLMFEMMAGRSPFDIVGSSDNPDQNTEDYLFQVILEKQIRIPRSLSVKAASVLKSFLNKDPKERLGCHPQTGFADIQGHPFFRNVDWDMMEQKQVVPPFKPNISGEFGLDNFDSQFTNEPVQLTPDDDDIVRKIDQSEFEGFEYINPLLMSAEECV

[19] = molecular target: RAD51 associated protein 1 (human) (UniProt Q96B01)
RAD51 associated protein 1 (human), sequence (Q96B01 whole entry): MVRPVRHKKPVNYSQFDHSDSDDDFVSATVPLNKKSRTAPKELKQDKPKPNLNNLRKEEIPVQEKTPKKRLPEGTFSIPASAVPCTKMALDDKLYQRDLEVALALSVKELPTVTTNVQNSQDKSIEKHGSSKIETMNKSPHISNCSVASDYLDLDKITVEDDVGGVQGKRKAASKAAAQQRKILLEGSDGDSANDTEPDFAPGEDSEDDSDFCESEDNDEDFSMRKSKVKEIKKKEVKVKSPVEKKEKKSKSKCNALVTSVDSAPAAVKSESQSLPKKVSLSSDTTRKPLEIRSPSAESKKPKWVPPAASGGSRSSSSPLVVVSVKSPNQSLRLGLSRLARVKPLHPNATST

[20] = molecular target: Rtf1, Paf1/RNA polymerase II complex component, homolog (S. cerevisiae) (human) (UniProt Q92541)
[21] = molecular target: SLAIN motif family, member 2 (human) (UniProt Q9P270)
[22] = molecular target: Signal recognition particle 19kDa (human) (UniProt P09132)
Signal recognition particle 19kDa (human), sequence (P09132 whole entry): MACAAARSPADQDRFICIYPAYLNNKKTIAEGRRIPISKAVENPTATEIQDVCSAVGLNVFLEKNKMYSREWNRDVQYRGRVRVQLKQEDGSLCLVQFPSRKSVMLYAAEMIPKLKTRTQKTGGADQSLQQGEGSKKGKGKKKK

[23] = molecular target: Ubiquitin-conjugating enzyme E2S (human) (UniProt Q16763)
[24] = molecular target: Vaccinia related kinase 1 (human) (UniProt Q99986)
Vaccinia related kinase 1 (human), sequence (Q99986 whole entry): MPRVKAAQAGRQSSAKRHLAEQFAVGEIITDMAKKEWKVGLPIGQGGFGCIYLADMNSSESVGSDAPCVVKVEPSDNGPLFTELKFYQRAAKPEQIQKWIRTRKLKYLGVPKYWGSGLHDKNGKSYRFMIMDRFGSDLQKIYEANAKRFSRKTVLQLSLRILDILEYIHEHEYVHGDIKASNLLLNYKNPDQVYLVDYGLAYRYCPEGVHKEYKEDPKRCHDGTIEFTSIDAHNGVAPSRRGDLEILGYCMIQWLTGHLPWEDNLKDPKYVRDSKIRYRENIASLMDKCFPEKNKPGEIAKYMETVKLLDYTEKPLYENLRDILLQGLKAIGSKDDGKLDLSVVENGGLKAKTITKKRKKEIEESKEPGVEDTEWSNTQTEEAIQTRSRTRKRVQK

[25] = molecular target: WAS/WASL interacting protein family, member 1 (human) (UniProt O43516)
[26] = molecular target: WD repeat domain 5 (human) (UniProt P61964)
[27] = molecular target: p 53-regulated DDA3 (DDA3)/proline/serine-rich coiled-coil 1 (human) (UniProt Q6PGN9)

Additional sex combs like 1 (Drosophila) (human), sequence (Q8IXJ9 other isoform, or with tags, fused parts or gaps limits assumed): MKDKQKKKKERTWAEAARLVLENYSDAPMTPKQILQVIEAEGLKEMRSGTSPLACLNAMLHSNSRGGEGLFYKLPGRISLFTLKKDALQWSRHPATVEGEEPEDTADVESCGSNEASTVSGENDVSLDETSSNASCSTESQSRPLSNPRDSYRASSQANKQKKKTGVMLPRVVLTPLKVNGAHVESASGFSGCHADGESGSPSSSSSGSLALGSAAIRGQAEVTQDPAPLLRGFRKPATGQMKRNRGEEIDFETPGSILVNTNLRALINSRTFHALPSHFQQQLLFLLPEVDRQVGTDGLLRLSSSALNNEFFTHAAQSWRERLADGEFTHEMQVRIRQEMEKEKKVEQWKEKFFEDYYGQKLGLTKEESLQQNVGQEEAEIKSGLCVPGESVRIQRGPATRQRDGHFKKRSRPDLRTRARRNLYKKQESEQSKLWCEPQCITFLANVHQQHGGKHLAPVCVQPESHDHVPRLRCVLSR
Eukaryotic translation initiation factor 1 A, X-linked (human), sequence (P47813 whole entry): as the sequence (O14602 whole entry) above, with L50M counted along it

With “biotinylated full-length Dengue virus capsid (DENV C) protein (other; other documents disagree on this pair)” the Signal Intensity [1] was 997 and the Z-score [1] was 3.85.

With “biotinylated full-length Dengue virus capsid (DENV C) protein” the Signal Intensity [2] was 1250, the Z-score [2] was 5.02 and the Signal Intensity [3] was 1070. The Z-score [3] was 4.19, the Signal Intensity (Aurora kinase A (human)) was 1160 and the Z-score (Aurora kinase A (human)) was 4.59. For the same substance, the Signal Intensity [4] was 1030, the Z-score [4] was 4.01 and the Signal Intensity [5] was 1020. The Z-score [5] was 3.94, the Signal Intensity [6] was 969 and the Z-score [6] was 3.72. It also gave a Signal Intensity [7] of 918, a Z-score [7] of 3.48 and a Signal Intensity [8] of 1740. It also gave a Z-score [8] of 7.26, a Signal Intensity (Cortactin (human)) of 3080 and a Z-score (Cortactin (human)) of 13.4. The Signal Intensity (Cyclin B3 (human)) was 854, the Z-score (Cyclin B3 (human)) was 3.19 and the Signal Intensity [9] was 1670. It also gave a Z-score [9] of 6.93, a Signal Intensity [10] of 816 and a Z-score [10] of 3.02. The Signal Intensity [11] was 852, the Z-score [11] was 3.18 and the Signal Intensity [12] was 1940. For the same substance, the Z-score [12] was 8.18, the Signal Intensity [13] was 875 and the Z-score [13] was 3.29. For the same substance, the Signal Intensity [14] was 918, the Z-score [14] was 3.49 and the Signal Intensity [15] was 928. The Z-score [15] was 3.53, the Signal Intensity [16] was 929 and the Z-score [16] was 3.53. For the same substance, the Signal Intensity [17] was 856, the Z-score [17] was 3.2 and the Signal Intensity [18] was 841. It also gave a Z-score [18] of 3.13, a Signal Intensity [19] of 1140 and a Z-score [19] of 4.52. The Signal Intensity [20] was 882, the Z-score [20] was 3.32 and the Signal Intensity [21] was 2570. The Z-score [21] was 11.1, the Signal Intensity [22] was 972 and 818 and the Z-score [22] was 3.73 and 3.02. For the same substance, the Signal Intensity [23] was 1350, the Z-score [23] was 5.49 and the Signal Intensity [24] was 845. For the same substance, the Z-score [24] was 3.15, the Signal Intensity [25] was 1160 and the Z-score [25] was 4.59. It also gave a Signal Intensity [26] of 840, a Z-score [26] of 3.13 and a Signal Intensity [27] of 822. For the same substance, the Z-score [27] was 3.04.
